Reference: PMC3439905

Molecular target: human alpha-thrombin (CD samples) (Homo sapiens, UniProt P00734;P00734 328-363;364-622)
Assay: CD thermal denaturation at 295 nm

B1: TBA (thrombin-binding aptamer) (structured_DNA)
DNA: GGTTGGTGTGGTTGG
- binding result: binds
